Test results from publication PMC5414174, “DNA replication licensing factor Cdc6 and Plk4 kinase antagonistically regulate centrosome duplication via Sas-6” (Nature Communications, 2017).

Biological target: T1, GST-tagged Plk4 (human, UniProt O00444 1-970)
T1 construct: human Plk4, cloned from a cDNA library by PCR into pGEX 4T-1; also called GST-Plk4; source: E. coli BL21, purified (glutathione Sepharose 4B); not shown: GST, N-terminal, kept
T1 sequence (looked up): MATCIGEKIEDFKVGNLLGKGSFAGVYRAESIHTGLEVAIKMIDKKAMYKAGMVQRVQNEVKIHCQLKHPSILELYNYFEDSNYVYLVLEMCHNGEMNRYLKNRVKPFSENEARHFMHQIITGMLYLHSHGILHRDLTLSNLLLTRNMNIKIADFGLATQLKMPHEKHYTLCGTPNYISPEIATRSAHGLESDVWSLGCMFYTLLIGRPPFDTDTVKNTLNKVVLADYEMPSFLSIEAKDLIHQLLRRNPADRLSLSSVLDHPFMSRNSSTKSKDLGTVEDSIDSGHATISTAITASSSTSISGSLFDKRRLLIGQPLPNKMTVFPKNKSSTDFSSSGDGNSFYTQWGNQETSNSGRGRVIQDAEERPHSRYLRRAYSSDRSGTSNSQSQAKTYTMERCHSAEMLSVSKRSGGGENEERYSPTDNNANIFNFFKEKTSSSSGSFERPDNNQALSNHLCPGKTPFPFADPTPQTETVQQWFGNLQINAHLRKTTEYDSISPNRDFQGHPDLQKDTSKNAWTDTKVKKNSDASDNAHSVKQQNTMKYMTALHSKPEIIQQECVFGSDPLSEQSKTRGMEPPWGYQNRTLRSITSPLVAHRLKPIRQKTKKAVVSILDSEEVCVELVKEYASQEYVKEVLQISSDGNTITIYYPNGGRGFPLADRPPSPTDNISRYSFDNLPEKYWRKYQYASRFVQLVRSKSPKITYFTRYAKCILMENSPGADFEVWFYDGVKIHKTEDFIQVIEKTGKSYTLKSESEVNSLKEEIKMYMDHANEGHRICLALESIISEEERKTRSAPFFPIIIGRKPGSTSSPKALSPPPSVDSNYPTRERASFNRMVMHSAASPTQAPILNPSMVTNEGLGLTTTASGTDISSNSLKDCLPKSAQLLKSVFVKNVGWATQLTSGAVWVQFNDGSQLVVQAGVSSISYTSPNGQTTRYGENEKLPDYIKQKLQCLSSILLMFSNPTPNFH
Experiment: pull-down; Sepharose beads coupled with purified GST-Plk4 incubated with purified His-Cdc6; western blot with His antibody
Details: both partners purified

binding result: binds
B1: His-tagged Cdc6 (purified) (natural protein, human, UniProt Q99741 1-560, looked up)
chain: MPQTRSQAQATISFPKRKLSRALNKAKNSSDAKLEPTNVQTVTCSPRVKALPLSPRKRLGDDNLCNTPHLPPCSPPKQGKKENGPPHSHTLKGRRLVFDNQLTIKSPSKRELAKVHQNKILSSVRKSQEITTNSEQRCPLKKESACVRLFKQEGTCYQQAKLVLNTAVPDRLPAREREMDVIRNFLREHICGKKAGSLYLSGAPGTGKTACLSRILQDLKKELKGFKTIMLNCMSLRTAQAVFPAIAQEICQEEVSRPAGKDMMRKLEKHMTAEKGPMIVLVLDEMDQLDSKGQDVLYTLFEWPWLSNSHLVLIGIANTLDLTDRILPRLQAREKCKPQLLNFPPYTRNQIVTILQDRLNQVSRDQVLDNAAVQFCARKVSAVSGDVRKALDVCRRAIEIVESDVKSQTILKPLSECKSPSEPLIPKRVGLIHISQVISEVDGNRMTLSQEGAQDSFPLQQKILVCSLMLLIRQLKIKEVTLGKLYEAYSKVCRKQQVAAVDQSECLSLSGLLEARGILGLKRNKETRLTKVFFKIEEKEIEHALKDKALIGNILATGLP
notes: human Cdc6; also called His-Cdc6; source: E. coli BL21, purified (His60 Ni Superflow resin)
